In publication PMC9016351:

target: RA‐BAX (UniProt Q07812); experiment: ddFP assay in cells (confocal microscopy); details: U2OS BAX/BAK DKO cells, 3 h after apoptosis induction; n = 3 independent experiments (n = 100 cells each); parent: est. 28; read off a plot
UniProt Q07812, sequence (Q07812 whole entry): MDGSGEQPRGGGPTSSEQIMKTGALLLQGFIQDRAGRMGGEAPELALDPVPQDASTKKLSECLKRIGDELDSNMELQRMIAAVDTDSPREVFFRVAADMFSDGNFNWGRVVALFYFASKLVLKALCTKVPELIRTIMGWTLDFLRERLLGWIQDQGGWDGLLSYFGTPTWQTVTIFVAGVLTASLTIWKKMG

Point of comparison: GB‐DRP1 K642E, response 33%. Against it:
- GB‐DRP1 K557R; K560R; K569R; K571R — higher, 35%
- GB‐DRP1 K38A — lower, 24%
- GB‐DRP1 R376E — higher, 34%
- GB‐DRP1 D221A — lower, 27%

target: GB‐DRP1; experiment: ddFP assay in cells (confocal microscopy); details: U2OS BAX/BAK DKO cells, 3 h after apoptosis induction; n = 3 independent experiments (n = 100 cells each); parent: est. 21; read off a plot

Point of comparison: RA‐BAX (from UniProt Q07812) L63E, response 0%. Against it:
- RA‐BAX (from UniProt Q07812) K58E — higher, 21%
- RA‐BAX (from UniProt Q07812) R134E — higher, 19%
- RA‐BAX (from UniProt Q07812) G40E — higher, 15%
- RA‐BAX (from UniProt Q07812) K21E; R134E — higher, 26%
- RA‐BAX (from UniProt Q07812) S184V — higher, 7.5%
- RA‐BAX (from UniProt Q07812) K21E — higher, 31%
- RA‐BAX (from UniProt Q07812) L59C — higher, 38%
- RA‐BAX (from UniProt Q07812) K57E — higher, 22%
- RA‐BAX (from UniProt Q07812) G67R — higher, 15%
- RA‐BAX (from UniProt Q07812) G67R; S184V — higher, 3%
